{"source": "paper PMC7704677", "origin": "cited, not measured here", "assay_in_all_cases": "UV-vis", "details_in_all_cases": "unphotolysed state; further details not given", "key": {"Asp85": {"target": "Asp85 (UniProt position 98, WARYADWLFTT)"}, "Asp89": {"tested_on": "Asp89"}, "Asp95": {"target": "Asp95 (UniProt position 95, FYRYADWLLTV)"}, "Asp75": {"tested_on": "Asp75"}}}
{"substance": "Bacteriorhodopsin (HsBR) (Halobacterium salinarum)", "values": [{"measurement": "pKa", "setting": "Asp85", "value": 2.7}]}
{"substance": "Acetabularia rhodopsin I (ARI) (Acetabularia acetabulum)", "values": [{"measurement": "pKa", "setting": "Asp89", "value": 2.7}]}
{"substance": "Thermophilic rhodopsin (TR) (Thermus thermophilus)", "values": [{"measurement": "pKa", "setting": "Asp95", "value": 3.4}]}
{"substance": "Anabaena sensory rhodopsin (ASR) (Anabaena (Nostoc) sp.)", "values": [{"measurement": "pKa", "setting": "Asp75", "value": 4.0}]}
